Measured values as given in publication PMC11574045, “A cofactor-induced repressive type of transcription factor condensation can be induced by synthetic peptides to suppress tumorigenesis” (The EMBO Journal, 2024).

B1: TRP63 (protein, UniProt Q9H3D4 1-680, looked up)
Tumor protein 63: MNFETSRCATLQYCPDPYIQRFVETPAHFSWKESYYRSTMSQSTQTNEFLSPEVFQHIWDFLEQPICSVQPIDLNFVDEPSEDGATNKIEISMDCIRMQDSDLSDPMWPQYTNLGLLNSMDQQIQNGSSSTSPYNTDHAQNSVTAPSPYAQPSSTFDALSPSPAIPSNTDYPGPHSFDVSFQQSSTAKSATWTYSTELKKLYCQIAKTCPIQIKVMTPPPQGAVIRAMPVYKKAEHVTEVVKRCPNHELSREFNEGQIAPPSHLIRVEGNSHAQYVEDPITGRQSVLVPYEPPQVGTEFTTVLYNFMCNSSCVGGMNRRPILIIVTLETRDGQVLGRRCFEARICACPGRDRKADEDSIRKQQVSDSTKNGDGTKRPFRQNTHGIQMTSIKKRRSPDDELLYLPVRGRETYEMLLKIKESLELMQYLPQHTIETYRQQQQQQHQHLLQKQTSIQSPSSYGNSSPPLNKMNSMNKLPSVSQLINPQQRNALTPTTIPDGMGANIPMMGTHMPMAGDMNGLSPTQALPPPLSMPSTSHCTPPPPYPTDCSIVSFLARLGCSSCLDYFTTQGLTTIYQIEHYSMDDLASLKIPEQFRHAIWKGILDHRQLHEFSSPSHLLRTPSSASTVSVGSSETRGERVIDAVRFTLRQTISFPPRDEWNDFNFDMDARRNKQQRIKEEGE
B2: TRIP4 (protein, UniProt Q15650 2-581, looked up)
Activating signal …: AVAGAVSGEPLVHWCTQQLRKTFGLDVSEEIIQYVLSIESAEEIREYVTDLLQGNEGKKGQFIEELITKWQKNDQELISDPLQQCFKKDEILDGQKSGDHLKRGRKKGRNRQEVPAFTEPDTTAEVKTPFDLAKAQENSNSVKKKTKFVNLYTREGQDRLAVLLPGRHPCDCLGQKHKLINNCLICGRIVCEQEGSGPCLFCGTLVCTHEEQDILQRDSNKSQKLLKKLMSGVENSGKVDISTKDLLPHQELRIKSGLEKAIKHKDKLLEFDRTSIRRTQVIDDESDYFASDSNQWLSKLERETLQKREEELRELRHASRLSKKVTIDFAGRKILEEENSLAEYHSRLDETIQAIANGTLNQPLTKLDRSSEEPLGVLVNPNMYQSPPQWVDHTGAASQKKAFRSSGFGLEFNSFQHQLRIQDQEFQEGFDGGWCLSVHQPWASLLVRGIKRVEGRSWYTPHRGRLWIAATAKKPSPQEVSELQATYRLLRGKDVEFPNDYPSGCLLGCVDLIDCLSQKQFKEQFPDISQESDSPFVFICKNPQEMVVKFPIKGNPKIWKLDSKIHQGAKKGLMKQNKAV

Test system: HEK293FT cells transfected with TF library
Test: Screening of TF condensates based on fluorescent puncta
Format: cell-based
Settings: Figure 1B numerical data; TF library screen, one value per transcriptional factor
Procedure, shortened: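 HEK293FT, PEI transfection of TF library, 60 h; ±glucose 12 h; 4% PFA fix, 0.05% Triton X-100 permeabilization, 5% BSA block; anti-Flag/anti-GAL4 overnight at 4 °C, Alexa 488 secondary 1 h; high-content imaging, 50 fields/well.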

| Molecule | Z score of condensed fraction |
| --- | --- |
| B1 | -0.7687 |
| B2 | 0.1966 |
